Laboratory results: article PMC5342195, “Structure-based mutational analysis of ICAT residues mediating negative regulation of β-catenin co-transcriptional activity” (PLoS ONE, 2017)

T1: ICAT D66G + F71A + E75V (GAV), Flag-tagged (human, UniProt Q9NSA3 1-81, D66G | F71A | E75V)
T1 construct: ICAT, human cDNA of 243 bp in pFLAG-CMV2, triple mutant of the C-terminal domain; also called ICAT-GAV; source: Mel501 cells, transiently transfected, in total cell lysate
T1 sequence (looked up): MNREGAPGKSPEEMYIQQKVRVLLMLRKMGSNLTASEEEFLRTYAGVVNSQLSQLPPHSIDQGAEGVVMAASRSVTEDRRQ


Tests used:
[1] = biological target: T2, ICAT D66G + F71A (GA), Flag-tagged (human, UniProt Q9NSA3 1-81, D66G | F71A); test: co-IP; total cell lysates of Mel501 cells transfected with ICAT-Flag WT or mutants, anti-Flag monoclonal antibody 2 h at 4°C, Protein G agarose, washed with RIPA; blot for endogenous β-catenin; densitometry with ImageJ, control fixed to 1.0; settings: partners not purified
T2 construct: ICAT, human cDNA of 243 bp in pFLAG-CMV2, double mutant of the C-terminal domain; also called ICAT-GA; source: Mel501 cells, transiently transfected, in total cell lysate

[2] = biological target: T1, ICAT D66G + F71A + E75V (GAV), …; test: as above; settings: partners not purified
[3] = biological target: T3, ICAT F71A + E75V (AV), Flag-tagged (human, UniProt Q9NSA3 1-81, F71A | E75V); test: as above; settings: partners not purified
T3 construct: ICAT, human cDNA of 243 bp in pFLAG-CMV2, double mutant of the C-terminal domain; also called ICAT-AV; source: Mel501 cells, transiently transfected, in total cell lysate

[4] = biological target: T4, WT ICAT-GST recombinant protein (human, UniProt Q9NSA3 1-81); test: pull-down; WT ICAT-GST on glutathione-Sepharose 4B beads incubated 3 h at 4°C with total cell lysate in RIPA (500 μg of total proteins) of Lu1205 cells transfected with HA-tagged β-catenin-NLS WT or mutants; washed five times; anti-HA blot; densitometry with ImageJ; settings: one partner purified
T4 construct: ICAT, WT human cDNA cloned in the bacterial expression vector pGEX-4T3; also called recombinant WT ICAT-GST protein

Row | reduction of co-precipitated β-catenin against ICAT WT [1] | reduction of co-precipitated β-catenin against ICAT WT [2] | reduction of co-precipitated β-catenin against ICAT WT [3] | fold of pulled-down protein against full-length WT β-catenin [4] | Binder
1 | > 70% | > 70% | > 70% | – | endogenous β-catenin of Mel501 cells (natural protein, human (endogenous in Mel501), UniProt P35222 1-781, looked up, β-catenin, endogenous in the human melanoma cell line Mel501; also called CTNNB1; source: endogenous, Mel501 total cell lysate) MATQADLMELDMAMEPDRKAAVSHWQQQSYLDSGIHSGATTTAPSLSGKGNPEEEDVDTSQVLYEWEQGFSQSFTQEQVADIDGQYAMTRAQRVRAAMFPETLDEGMQIPSTQFDAAHPTNVQRLAEPSQMLKHAVVNLINYQDDAELATRAIPELTKLLNDEDQVVVNKAAVMVHQLSKKEASRHAIMRSPQMVSAIVRTMQNTNDVETARCTAGTLHNLSHHREGLLAIFKSGGIPALVKMLGSPVDSVLFYAITTLHNLLLHQEGAKMAVRLAGGLQKMVALLNKTNVKFLAITTDCLQILAYGNQESKLIILASGGPQALVNIMRTYTYEKLLWTTSRVLKVLSVCSSNKPAIVEAGGMQALGLHLTDPSQRLVQNCLWTLRNLSDAATKQEGMEGLLGTLVQLLGSDDINVVTCAAGILSNLTCNNYKNKMMVCQVGGIEALVRTVLRAGDREDITEPAICALRHLTSRHQEAEMAQNAVRLHYGLPVVVKLLHPPSHWPLIKATVGLIRNLALCPANHAPLREQGAIPRLVQLLVRAHQDTQRRTSMGGTQQQFVEGVRMEEIVEGCTGALHILARDVHNRIVIRGLNTIPLFVQLLYSPIENIQRVAAGVLCELAQDKEAAEAIEAEGATAPLTELLHSRNEGVATYAAAVLFRMSEDKPQDYKKRLSVELTSSLFRTEPMAWNETADLGLDIGAQGEPLGYRQDDPSYRSFHSGGYGQDALGMDPMMEHEMGGHHPGADYPVDGLPDLGHAQDLMDGLPPGDSNQLAWFDTDL
2 | – | – | – | 1.5 fold | HA-tagged β-catenin-NLS Δ665 (D665X) (domain or fragment, UniProt P35222 1-664, looked up, β-catenin of the HA-tagged CMV::β-catenin-NLS expression vector, truncated by a premature stop codon at residue 665 (D665X); lacks helix C (residues 667-683) and the C-terminal domain; If the NLS stood at the C-terminus of the parent construct, the stop codon would remove it; also called β-catenin Δ665; source: Lu1205 cells, transfected, in total cell lysate) MATQADLMELDMAMEPDRKAAVSHWQQQSYLDSGIHSGATTTAPSLSGKGNPEEEDVDTSQVLYEWEQGFSQSFTQEQVADIDGQYAMTRAQRVRAAMFPETLDEGMQIPSTQFDAAHPTNVQRLAEPSQMLKHAVVNLINYQDDAELATRAIPELTKLLNDEDQVVVNKAAVMVHQLSKKEASRHAIMRSPQMVSAIVRTMQNTNDVETARCTAGTLHNLSHHREGLLAIFKSGGIPALVKMLGSPVDSVLFYAITTLHNLLLHQEGAKMAVRLAGGLQKMVALLNKTNVKFLAITTDCLQILAYGNQESKLIILASGGPQALVNIMRTYTYEKLLWTTSRVLKVLSVCSSNKPAIVEAGGMQALGLHLTDPSQRLVQNCLWTLRNLSDAATKQEGMEGLLGTLVQLLGSDDINVVTCAAGILSNLTCNNYKNKMMVCQVGGIEALVRTVLRAGDREDITEPAICALRHLTSRHQEAEMAQNAVRLHYGLPVVVKLLHPPSHWPLIKATVGLIRNLALCPANHAPLREQGAIPRLVQLLVRAHQDTQRRTSMGGTQQQFVEGVRMEEIVEGCTGALHILARDVHNRIVIRGLNTIPLFVQLLYSPIENIQRVAAGVLCELAQDKEAAEAIEAEGATAPLTELLHSRNEGVATYAAAVLFRMSE
